According to patent US20170313764A1 (ACADEMISCH MEDISCH CENTRUM, published 2017):

What was measured:
[1] = molecular target: E1E2 of HCV isolate AMS.1b.20877857 (genotype 1b) (Hepatitis C virus genotype 1b); assay: cell-based or functional assay
[2] = molecular target: E1E2 of HCV isolate AMS.2b.20876551.kloon21 (genotype 2b) (Hepatitis C virus genotype 2b); assay: cell-based or functional assay
[3] = molecular target: E1E2 of HCV isolate AMS.3a.21071213 (genotype 3a) (Hepatitis C virus genotype 3a); assay: cell-based or functional assay
[4] = molecular target: E1E2 of HCV isolate UKN4.11.1 (genotype 4) (Hepatitis C virus genotype 4); assay: cell-based or functional assay
[5] = molecular target: E1E2 of HCV isolate AMS.4d.20875969 (genotype 4d) (Hepatitis C virus genotype 4d); assay: cell-based or functional assay
[6] = molecular target: T1, soluble E2-his6-sortase tag from HCV isolate H77 (genotype 1a) (Hepatitis C virus genotype 1a, strain …, UniProt P27958 384-717); assay: SPR (IBIS MX96), antibody spotted on chip, soluble E2-his as analyte
T1 construct: also called E2-his6-ST; E2 genotype 1a

[7] = molecular target: T2, soluble E2-his6-sortase tag from HCV isolate AMS.2b.20876551.kloon21 (genotype 2b) (Hepatitis C virus genotype 2b); assay: as above
T2 chain: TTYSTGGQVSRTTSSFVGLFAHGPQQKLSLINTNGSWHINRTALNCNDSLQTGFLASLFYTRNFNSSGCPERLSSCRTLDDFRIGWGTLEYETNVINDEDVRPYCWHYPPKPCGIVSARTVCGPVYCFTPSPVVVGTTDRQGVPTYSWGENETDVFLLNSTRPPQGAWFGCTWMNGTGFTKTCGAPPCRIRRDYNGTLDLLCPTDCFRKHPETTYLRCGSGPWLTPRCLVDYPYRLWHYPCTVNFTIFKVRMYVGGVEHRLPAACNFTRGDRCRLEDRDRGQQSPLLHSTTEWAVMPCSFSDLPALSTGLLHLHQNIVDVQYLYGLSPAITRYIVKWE

[8] = molecular target: E1E2 of HCV isolate H77 (genotype 1a), wild type (Hepatitis C virus genotype 1a, strain …, UniProt P27958 192-383; P27958 384-746); assay: cell-based or functional assay
[9] = molecular target: E1E2 of HCV isolate H77 with single mutation N415A (Hepatitis C virus genotype 1a, strain …, UniProt P27958 192-383; P27958 384-746); assay: ELISA, GNA-captured E1E2 lysate; EC50 wild type / EC50 mutant
[10] = molecular target: E1E2 of HCV isolate H77 with single mutation S424A (Hepatitis C virus genotype 1a, strain …, UniProt P27958 192-383; P27958 384-746); assay: as above
[11] = molecular target: E1E2 of HCV isolate H77 with single mutation T435A (Hepatitis C virus genotype 1a, strain …, UniProt P27958 192-383; P27958 384-746); assay: as above
[12] = molecular target: E1E2 of HCV isolate H77 with single mutation G436A (Hepatitis C virus genotype 1a, strain …, UniProt P27958 192-383; P27958 384-746); assay: as above
[13] = molecular target: E1E2 of HCV isolate H77 with single mutation A439G (Hepatitis C virus genotype 1a, strain …, UniProt P27958 192-383; P27958 384-746); assay: as above
[14] = molecular target: E1E2 of HCV isolate H77 with single mutation Y443A (Hepatitis C virus genotype 1a, strain …, UniProt P27958 192-383; P27958 384-746); assay: as above
[15] = molecular target: E1E2 of HCV isolate H77 with single mutation Y485A (Hepatitis C virus genotype 1a, strain …, UniProt P27958 192-383; P27958 384-746); assay: as above
[16] = molecular target: E1E2 of HCV isolate H77 with single mutation T526A (Hepatitis C virus genotype 1a, strain …, UniProt P27958 192-383; P27958 384-746); assay: as above
[17] = molecular target: E1E2 of HCV isolate H77 with single mutation Y527A (Hepatitis C virus genotype 1a, strain …, UniProt P27958 192-383; P27958 384-746); assay: as above
[18] = molecular target: E1E2 of HCV isolate H77 with single mutation W529A (Hepatitis C virus genotype 1a, strain …, UniProt P27958 192-383; P27958 384-746); assay: as above
[19] = molecular target: E1E2 of HCV isolate H77 with single mutation G530A (Hepatitis C virus genotype 1a, strain …, UniProt P27958 192-383; P27958 384-746); assay: as above
[20] = molecular target: E1E2 of HCV isolate H77 with single mutation D535A (Hepatitis C virus genotype 1a, strain …, UniProt P27958 192-383; P27958 384-746); assay: as above
[21] = molecular target: E1E2 of HCV isolate H77 with single mutation W616A (Hepatitis C virus genotype 1a, strain …, UniProt P27958 192-383; P27958 384-746); assay: as above
[22] = molecular target: E1E2 of HCV isolate H77 with single mutation R657A (Hepatitis C virus genotype 1a, strain …, UniProt P27958 192-383; P27958 384-746); assay: as above
[23] = molecular target: E1E2 of HCV isolate H77 with single mutation D698A (Hepatitis C virus genotype 1a, strain …, UniProt P27958 192-383; P27958 384-746); assay: as above
[24] = molecular target: E1E2 of HCV isolate H77 with single mutation L413A (Hepatitis C virus genotype 1a, strain …, UniProt P27958 192-383; P27958 384-746); assay: as above
[25] = molecular target: E1E2 of HCV isolate H77 with single mutation G418A (Hepatitis C virus genotype 1a, strain …, UniProt P27958 192-383; P27958 384-746); assay: as above
[26] = molecular target: E1E2 of HCV isolate H77 with single mutation W420A (Hepatitis C virus genotype 1a, strain …, UniProt P27958 192-383; P27958 384-746); assay: as above
[27] = molecular target: T3, HCV E1E2 protein in transfected 293T cells (CD81 competition assay; isolate not stated); assay: flow cytometry competition: E1E2-transfected 293T cells pre-incubated with antibody, then CD81-LEL (mouse Fc) added and detected; blocked ligand CD81-LEL
T3 construct: also called E1E2 transfected cells

B1: AT12-011 (antibody, V domains shown)
VH: QVQLVQSGAEVKKPGSSVKVSCKASGGTFSGYGITWVRQAPGQGLEWMGTIIPVSATETYAQRLQGRVTISADEHSTTSYMEVSSLKSEDTALYYCARHDYFWGTPLDIWGQGTMVIVSS
VL: EIVLTQSPDFQSVTPKEKVTITCRASQSIGSNLHWYQQKPGQSPKLLIKYASQSFSGVPSRFSGSGSGTDFTLTINSLEAEDAATYFCHQSYNLPRTFGGGTKVEIKR
[1]
  IC50, HCVpp neutralization: 4.31 µg/mL
  IC90, HCVpp neutralization: > 50 µg/mL
[2]
  IC50, HCVpp neutralization: 27.5 µg/mL
  IC90, HCVpp neutralization: > 50 µg/mL
[3]
  IC50, HCVpp neutralization: > 50 µg/mL
  IC90, HCVpp neutralization: > 50 µg/mL
[4]
  IC50, HCVpp neutralization: > 50 µg/mL
  IC90, HCVpp neutralization: > 50 µg/mL
[5]
  IC50, HCVpp neutralization: > 50 µg/mL
  IC90, HCVpp neutralization: > 50 µg/mL
[6]
  Kd: 0.3 nM
[7]
  Kd: 0.2 nM

B2: AT13-021 (antibody, V domains shown)
VH: QVQLVQSGAEVKKPGSSVKVSCKASGGTFNTHAFSWVRQAPGEGLEWMGGISPMSGTPNYAQKFQGRLTITADESTSTGYMELRSLTSEDTAVYYCARELIGYCTGGNCYSFGDFWGQGTLITVSS
VL: EIVMTQSPATLSVSPGERATLSCRASQSVSSHLAWYQHKPGQAPRLLISGASTRAVGVPARFSGSGSGTEFTLTISSLQSEDFAVYYCHQYNTWPRGFGQGTKVDFKR
[8]
  IC50, HCVpp neutralization: 0.3 µg/mL
  IC90, HCVpp neutralization: 9.98 µg/mL
[1]
  IC50, HCVpp neutralization: 0.09 µg/mL
  IC90, HCVpp neutralization: 5.67 µg/mL
[2]
  IC50, HCVpp neutralization: 0.12 µg/mL
  IC90, HCVpp neutralization: 8.84 µg/mL
[3]
  IC50, HCVpp neutralization: 0.25 µg/mL
  IC90, HCVpp neutralization: 12.3 µg/mL
[4]
  IC50, HCVpp neutralization: 0.94 µg/mL
  IC90, HCVpp neutralization: 13.9 µg/mL
[5]
  IC50, HCVpp neutralization: 0.94 µg/mL
  IC90, HCVpp neutralization: > 50 µg/mL
[9]
  relative binding, mutant vs wild type: 119%
[10]
  relative binding, mutant vs wild type: 17%
[11]
  relative binding, mutant vs wild type: 21%
[12]
  relative binding, mutant vs wild type: < 10%
[13]
  relative binding, mutant vs wild type: 53%
[14]
  relative binding, mutant vs wild type: 87%
[15]
  relative binding, mutant vs wild type: 114%
[16]
  relative binding, mutant vs wild type: 27%
[17]
  relative binding, mutant vs wild type: 21%
[18]
  relative binding, mutant vs wild type: 13%
[19]
  relative binding, mutant vs wild type: < 10%
[20]
  relative binding, mutant vs wild type: < 10%
[21]
  relative binding, mutant vs wild type: < 10%
[22]
  relative binding, mutant vs wild type: 88%
[23]
  relative binding, mutant vs wild type: 80%
[24]
  relative binding, mutant vs wild type: 185%
[25]
  relative binding, mutant vs wild type: 131%
[26]
  relative binding, mutant vs wild type: 103%
[6]
  Kd: 14.2 nM
  koff: 0.00036 s⁻¹
[7]
  Kd: 2 nM
  koff: 0.0001 s⁻¹

B3: AT12-009 (antibody, V domains shown)
VH: SSVRVSCKASGDTFKTHAISWVRQAPGQGLEWVGGTVRQAPGDGLELLGGFVPILAPANDAQKFQGRVTITADGSTGPVYMDLSTLTSEDTAMYYCVTSLSEPIPRSCRGGRCYSGPFDAFGVWGQGTMVTVSS
VL: ETMLTQSPVTLSVSPGERATLSCRASQSIGTNLAWYQQKPGQAPRLLIHGASTRATGVPVSFSGSGSGTEFTLTISSLQSEDFAVYYCQQYNNWPLTFGGGTKVDFKR
[1]
  IC50, HCVpp neutralization: 0.001 µg/mL
  IC90, HCVpp neutralization: 0.13 µg/mL
[2]
  IC50, HCVpp neutralization: 0.06 µg/mL
  IC90, HCVpp neutralization: 6.17 µg/mL
[3]
  IC50, HCVpp neutralization: 0.14 µg/mL
  IC90, HCVpp neutralization: 5.34 µg/mL
[4]
  IC50, HCVpp neutralization: 0.19 µg/mL
  IC90, HCVpp neutralization: 14.1 µg/mL
[5]
  IC50, HCVpp neutralization: 0.72 µg/mL
  IC90, HCVpp neutralization: 47.4 µg/mL
[7]
  Kd: 2.3 nM
  koff: 0.0002 s⁻¹
[27]
  IC50 (read off the curve): ~2 µg/mL
